This note sets out measurements from US20240299575A1 (DENALI THERAPEUTICS, published 2024).

The chains are these.
B1: TV variant S239C (RSV Fab-Fc dimer fusion, CH3C.35.23.2 on the knob chain, LALA, S239C on the hole chain) (antibody, human IgG1, kappa, L234A L235A)
light: DIQMTQSPSTLSASVGDRVTITCKCQLSVGYMHWYQQKPGKAPKLLIYDTSKLASGVPSRFSGSGSGTEFTLTISSLQPDDFATYYCFQGSGYPFTFGGGTKLEIKRTVAAPSVFIFPPSDEQLKSGTASVVCLLNNFYPREAKVQWKVDNALQSGNSQESVTEQDSKDSTYSLSSTLTLSKADYEKHKVYACEVTHQGLSSPVTKSFNRGEC
heavy 1: QVTLRESGPALVKPTQTLTLTCTFSGFSLSTSGMSVGWIRQPPGKALEWLADIWWDDKKDYNPSLKSRLTISKDTSKNQVVLKVTNMEPADTATYYCARSMITNWYFDVWGAGTTVTVSSASTKGPSVFPLAPSSKSTSGGTAALGCLVKDYFPEPVTVSWNSGALTSGVHTFPAVLQSSGLYSLSSVVTVPSSSLGTQTYICNVNHKPSNTKVDKKVEPKSCDKTHTCPPCPAPEAAGGPSVFLFPPKPKDTLMISRTPEVTCVVVDVSHEDPEVKFNWYVDGVEVHNAKTKPREEQYNSTYRVVSVLTVLHQDWLNGKEYKCKVSNKALPAPIEKTISKAKGQPREPQVYTLPPSRDELTKNQVSLWCLVKGFYPSDIAVEWESYGTEWANYKTTPPVLDSDGSFFLYSKLTVTKEEWQQGFVFSCSVMHEALHNHYTQKSLSLSPGK
heavy 2: QVTLRESGPALVKPTQTLTLTCTFSGFSLSTSGMSVGWIRQPPGKALEWLADIWWDDKKDYNPSLKSRLTISKDTSKNQVVLKVTNMEPADTATYYCARSMITNWYFDVWGAGTTVTVSSASTKGPSVFPLAPSSKSTSGGTAALGCLVKDYFPEPVTVSWNSGALTSGVHTFPAVLQSSGLYSLSSVVTVPSSSLGTQTYICNVNHKPSNTKVDKKVEPKSCDKTHTCPPCPAPEAAGGPCVFLFPPKPKDTLMISRTPEVTCVVVDVSHEDPEVKFNWYVDGVEVHNAKTKPREEQYNSTYRVVSVLTVLHQDWLNGKEYKCKVSNKALPAPIEKTISKAKGQPREPQVYTLPPSRDELTKNQVSLSCAVKGFYPSDIAVEWESNGQPENNYKTTPPVLDSDGSFFLVSKLTVDKSRWQQGNVFSCSVMHEALHNHYTQKSLSLSPGK
notes: also called S239C (100 nM); S239 variant
B2: TV variant OTR4 (RSV Fab-Fc dimer fusion, CH3C.35.23.2 on the knob chain, S239C and A330C on both chains) (antibody, human IgG1, kappa, L234A L235A)
light: B1 light
heavy 1: B1 heavy 1 with S242C, A333C
heavy 2: B1 heavy 2 with A333C
notes: also called OTR4 (2.5)
B3: TV variant A330C (RSV Fab-Fc dimer fusion, CH3C.35.23.2 on the knob chain, A330C on the hole chain) (antibody, human IgG1, kappa, L234A L235A)
light: B1 light
heavy 1: B1 heavy 1
heavy 2: B1 heavy 2 with C242S, A333C
notes: also called Conjugation site A330C
B4: TV variant 500 nM low affinity (RSV Fab-Fc dimer fusion, CH3C.35.23.4 on the knob chain, S239C on the hole chain) (antibody, human IgG1, kappa, L234A L235A)
light: B1 light
heavy 1: B1 heavy 1 with A392S, T416S
heavy 2: B1 heavy 2
notes: also called 500 nM variant
B5: TV variant S442C (RSV Fab-Fc dimer fusion, CH3C.35.23.2 on the knob chain, S442C on the hole chain) (antibody, human IgG1, kappa, L234A L235A)
light: B1 light
heavy 1: B1 heavy 1
heavy 2: B1 heavy 2 with C242S, S445C
notes: also called Conjugation site S442C
B6: TV variant OTR2 (RSV Fab-Fc dimer fusion, CH3C.35.23.2 on the knob chain, S239C on both chains) (antibody, human IgG1, kappa, L234A L235A)
light: B1 light
heavy 1: B1 heavy 1 with S242C
heavy 2: B1 heavy 2
notes: also called OTR2 (1.23)
B7: TV variant SansFab (Fc polypeptide dimer without Fab, CH3C.35.23.2 on the knob chain, S239C on the hole chain) (designed binder)
chain 1: DKTHTCPPCPAPEAAGGPSVFLFPPKPKDTLMISRTPEVTCVVVDVSHEDPEVKFNWYVDGVEVHNAKTKPREEQYNSTYRVVSVLTVLHQDWLNGKEYKCKVSNKALPAPIEKTISKAKGQPREPQVYTLPPSRDELTKNQVSLWCLVKGFYPSDIAVEWESYGTEWANYKTTPPVLDSDGSFFLYSKLTVTKEEWQQGFVFSCSVMHEALHNHYTQKSLSLSPGK
chain 2: DKTHTCPPCPAPEAAGGPCVFLFPPKPKDTLMISRTPEVTCVVVDVSHEDPEVKFNWYVDGVEVHNAKTKPREEQYNSTYRVVSVLTVLHQDWLNGKEYKCKVSNKALPAPIEKTISKAKGQPREPQVYTLPPSRDELTKNQVSLSCAVKGFYPSDIAVEWESNGQPENNYKTTPPVLDSDGSFFLVSKLTVDKSRWQQGNVFSCSVMHEALHNHYTQKSLSLSPGK
notes: Fc knob-in-hole heterodimer with a portion of the IgG1 hinge and LALA mutations; also called No Fab
B8: TV variant N297G knob (DNP02 Fab-Fc dimer fusion, CH3C.35.23.2 on the knob chain, LALAPG, N297G on the knob chain) (antibody, human IgG1, kappa, L234A L235A, N297G)
light: EIVMTQSPATLSLSPGERATLSCSASSSVSYMYWYQQKPGQAPRLLIYDTSNLASGIPARFSGSGSGTDFTLTISSLQPEDFAVYYCQQWSSYPPITFGQGTKVEIKRTVAAPSVFIFPPSDEQLKSGTASVVCLLNNFYPREAKVQWKVDNALQSGNSQESVTEQDSKDSTYSLSSTLTLSKADYEKHKVYACEVTHQGLSSPVTKSFNRGEC
heavy 1: QVQLQESGPGLVKPSETLSLTCAVSGYSITSDYAWNWIRQPPGKGLEWIGYMSYSGSTRYNPSLRSRVTISVDTSKNQFSLKLSSVTAADTAVYYCARGWPLAYWGQGTLVTVSSASTKGPSVFPLAPSSKSTSGGTAALGCLVKDYFPEPVTVSWNSGALTSGVHTFPAVLQSSGLYSLSSVVTVPSSSLGTQTYICNVNHKPSNTKVDKKVEPKSCDKTHTCPPCPAPEAAGGPSVFLFPPKPKDTLMISRTPEVTCVVVDVSHEDPEVKFNWYVDGVEVHNAKTKPREEQYGSTYRVVSVLTVLHQDWLNGKEYKCKVSNKALGAPIEKTISKAKGQPREPQVYTLPPSRDELTKNQVSLWCLVKGFYPSDIAVEWESYGTEWANYKTTPPVLDSDGSFFLYSKLTVTKEEWQQGFVFSCSVMHEALHNHYTQKSLSLSPGK
heavy 2: QVQLQESGPGLVKPSETLSLTCAVSGYSITSDYAWNWIRQPPGKGLEWIGYMSYSGSTRYNPSLRSRVTISVDTSKNQFSLKLSSVTAADTAVYYCARGWPLAYWGQGTLVTVSSASTKGPSVFPLAPSSKSTSGGTAALGCLVKDYFPEPVTVSWNSGALTSGVHTFPAVLQSSGLYSLSSVVTVPSSSLGTQTYICNVNHKPSNTKVDKKVEPKSCDKTHTCPPCPAPEAAGGPSVFLFPPKPKDTLMISRTPEVTCVVVDVSHEDPEVKFNWYVDGVEVHNAKTKPREEQYNSTYRVVSVLTVLHQDWLNGKEYKCKVSNKALGAPIEKTISKAKGQPREPQVYTLPPSRDELTKNQVSLSCAVKGFYPSDIAVEWESNGQPENNYKTTPPVLDSDGSFFLVSKLTVDKSRWQQGNVFSCSVMHEALHNHYTQKSLSLSPGK
notes: Knob-in-hole heterodimer with non-targeting DNP02 Fabs; also called BTGase Knob
B9: TV variant N297G hole (DNP02 Fab-Fc dimer fusion, CH3C.35.23.2 on the knob chain, LALAPG, N297G on the hole chain) (antibody, human IgG1, kappa, L234A L235A, N297G)
light: B8 light
heavy 1: B8 heavy 1 with G295N
heavy 2: B8 heavy 2 with N295G
notes: Knob-in-hole heterodimer with non-targeting DNP02 Fabs; also called BTGase Hole
B10: TV variant A114C (DNP02 Fab-Fc dimer fusion, CH3C.35.23.2 on the knob chain, LALAPG, A114C (Kabat) on the hole chain) (antibody, human IgG1, kappa, L234A L235A)
light: B8 light
heavy 1: B8 heavy 1 with G295N
heavy 2: B8 heavy 2 with A116C
notes: Knob-in-hole heterodimer with non-targeting DNP02 Fabs
B11: TV variant T289C (DNP02 Fab-Fc dimer fusion, CH3C.35.23.2 on the knob chain, LALAPG, T289C on the hole chain) (antibody, human IgG1, kappa, L234A L235A)
light: B8 light
heavy 1: B8 heavy 1 with G295N
heavy 2: B8 heavy 2 with T287C
notes: as for B10
B12: TV variant K149C (DNP02 Fab-Fc dimer fusion, CH3C.35.23.2 on the knob chain, LALAPG, K149C on the DNP02 light chain) (antibody, human IgG1, kappa, L234A L235A)
light: B8 light with K149C
heavy 1: B8 heavy 1 with G295N
heavy 2: B8 heavy 2
notes: as for B10
B13: TV variant N297G OTR2 (DNP02 Fab-Fc dimer fusion, CH3C.35.23.2 on the knob chain, LALAPG, N297G on both chains) (antibody, human IgG1, kappa, L234A L235A, N297G)
light: B8 light
heavy 1: B8 heavy 1
heavy 2: B8 heavy 2 with N295G
notes: Knob-in-hole heterodimer with non-targeting DNP02 Fabs; also called BTGase DAR2

Changes are numbered by the printed parent chain. Names and notes keep the numbering of the source.

T1 sequence (P02786 89-760 limits assumed): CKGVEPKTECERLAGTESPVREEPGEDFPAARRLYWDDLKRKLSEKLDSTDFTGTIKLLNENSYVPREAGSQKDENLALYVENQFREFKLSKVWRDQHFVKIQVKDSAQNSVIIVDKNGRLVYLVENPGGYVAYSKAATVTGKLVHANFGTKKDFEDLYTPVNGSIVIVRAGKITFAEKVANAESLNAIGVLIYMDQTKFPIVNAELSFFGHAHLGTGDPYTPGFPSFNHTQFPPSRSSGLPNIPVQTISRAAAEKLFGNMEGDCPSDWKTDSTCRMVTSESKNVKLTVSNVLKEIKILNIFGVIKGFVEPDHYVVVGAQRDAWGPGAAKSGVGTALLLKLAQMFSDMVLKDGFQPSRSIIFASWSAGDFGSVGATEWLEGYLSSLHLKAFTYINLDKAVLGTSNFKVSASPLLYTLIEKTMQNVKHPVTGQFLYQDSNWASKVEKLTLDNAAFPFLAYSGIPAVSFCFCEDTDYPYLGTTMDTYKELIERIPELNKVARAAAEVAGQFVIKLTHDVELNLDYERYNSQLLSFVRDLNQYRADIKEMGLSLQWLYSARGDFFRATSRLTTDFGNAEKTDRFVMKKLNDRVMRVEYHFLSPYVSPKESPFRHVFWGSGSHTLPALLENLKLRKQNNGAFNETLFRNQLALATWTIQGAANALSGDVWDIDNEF

The first experiment has as its target T1, Human transferrin receptor protein 1 (TFR1) (human, UniProt P02786 89-760, limits assumed).
T1 construct: also called huTfR
As to the kind of experiment: column 'Affinity' of the construct table; method not stated.
B1 gave a Kd of 100 nM.

In turn, B2 displayed a Kd of 100 nM. That is a sub-micromolar value.

Take B3: the Kd is 100 nM.

B4 yielded a Kd of 500 nM.

B5: the Kd stood at 100 nM.

As to B6, the Kd was 100 nM.

The molecule B7 yielded a Kd of 100 nM.

Another experiment addresses T1, Human transferrin receptor protein 1 …. Described as above. The source holds these as a separate data set.
For the molecule B8, the Kd was 100 nM.

The molecule B9 yielded a Kd of 100 nM. This lies in the sub-micromolar range.

As to B10, binding was characterised by a dissociation constant (Kd) of 100 nM.

Regarding B11, binding was characterised by a dissociation constant (Kd) of 100 nM.

Regarding B12, binding was characterised by a dissociation constant (Kd) of 100 nM.

As to B13, binding was characterised by a dissociation constant (Kd) of 100 nM.
